Results as given in patent US20240360179A1.

What follows are substances tested against beta-catenin fused to HaloTag (NanoBRET acceptor construct), expressed in HEK293 cells (UniProt P35222) (assay: NanoBRET in HEK293 cells, beta-catenin-HaloTag against TCF4-NanoLuc).
Chain of beta-catenin fused to HaloTag (NanoBRET acceptor construct), expressed in HEK293 cells (P35222 whole entry, the tested form may be a part): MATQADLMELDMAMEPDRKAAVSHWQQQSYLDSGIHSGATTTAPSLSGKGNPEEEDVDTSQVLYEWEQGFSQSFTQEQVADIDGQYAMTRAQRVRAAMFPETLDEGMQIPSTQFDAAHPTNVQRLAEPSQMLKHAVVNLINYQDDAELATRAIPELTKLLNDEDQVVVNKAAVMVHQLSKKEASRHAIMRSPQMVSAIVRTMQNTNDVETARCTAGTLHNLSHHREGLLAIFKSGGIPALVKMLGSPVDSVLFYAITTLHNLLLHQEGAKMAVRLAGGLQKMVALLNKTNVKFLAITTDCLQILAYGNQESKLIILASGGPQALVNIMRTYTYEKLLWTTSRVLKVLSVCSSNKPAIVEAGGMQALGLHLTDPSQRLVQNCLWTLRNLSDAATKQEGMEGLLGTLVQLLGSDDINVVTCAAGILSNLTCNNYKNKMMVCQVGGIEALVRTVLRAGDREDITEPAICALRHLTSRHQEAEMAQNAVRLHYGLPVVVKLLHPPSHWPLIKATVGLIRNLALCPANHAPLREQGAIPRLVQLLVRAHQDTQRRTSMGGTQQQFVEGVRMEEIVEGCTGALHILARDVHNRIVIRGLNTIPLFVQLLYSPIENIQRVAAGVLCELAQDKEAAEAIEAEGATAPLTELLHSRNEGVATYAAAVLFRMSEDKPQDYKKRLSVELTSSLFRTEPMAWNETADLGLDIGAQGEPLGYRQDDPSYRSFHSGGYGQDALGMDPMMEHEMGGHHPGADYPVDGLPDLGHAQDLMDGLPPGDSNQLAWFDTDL

Substance | IC50
Peptide A | 3000 nM

What follows are substances tested against endogenous beta-catenin in cells (DLD1, HAP1 WT) (human) (assay: cell-based or functional assay).
Chain of endogenous beta-catenin in cells (DLD1, HAP1 WT) (human) (P35222 2-781): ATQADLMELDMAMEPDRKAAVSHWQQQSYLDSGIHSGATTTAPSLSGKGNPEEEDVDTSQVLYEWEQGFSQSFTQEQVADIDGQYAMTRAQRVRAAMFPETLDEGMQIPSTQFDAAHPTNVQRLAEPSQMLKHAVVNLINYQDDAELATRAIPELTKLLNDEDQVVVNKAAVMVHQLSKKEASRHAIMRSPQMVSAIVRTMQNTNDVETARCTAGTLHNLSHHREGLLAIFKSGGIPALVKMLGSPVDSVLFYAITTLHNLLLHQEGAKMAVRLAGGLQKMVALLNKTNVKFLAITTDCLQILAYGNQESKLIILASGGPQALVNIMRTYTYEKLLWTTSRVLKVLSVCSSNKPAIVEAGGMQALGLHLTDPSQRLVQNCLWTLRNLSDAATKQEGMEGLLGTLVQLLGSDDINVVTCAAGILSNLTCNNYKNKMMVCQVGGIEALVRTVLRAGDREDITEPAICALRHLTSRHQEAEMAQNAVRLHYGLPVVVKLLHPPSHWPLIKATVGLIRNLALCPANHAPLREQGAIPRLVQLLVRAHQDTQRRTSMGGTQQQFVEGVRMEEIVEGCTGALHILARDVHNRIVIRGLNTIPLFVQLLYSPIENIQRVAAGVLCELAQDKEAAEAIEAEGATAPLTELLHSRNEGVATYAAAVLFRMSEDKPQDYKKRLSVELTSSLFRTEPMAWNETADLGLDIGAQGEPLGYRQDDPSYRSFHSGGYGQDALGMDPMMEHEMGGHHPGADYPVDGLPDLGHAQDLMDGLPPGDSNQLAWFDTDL

Substance | AXIN2 expression in DLD1 cells, IC50 | SP5 expression in DLD1 cells, IC50
Peptide A | 9300 nM | 9000 nM

What follows are substances tested against beta-catenin in DLD1 TCF reporter cells (UniProt P35222) (assay: cell-based or functional assay).
Chain of beta-catenin in DLD1 TCF reporter cells (P35222 2-781 limits assumed): as the sequence (P35222 2-781) above

Substance | beta-catenin TCF4 DLD1 cell reporter assay IC50
C-1: Ac-PL3-Asp-Npg-B5-Asp-3COOHF-Ala-Ala-Phe-Leu-PyrS2-2F3MeF-BztA-Gln-NH2 (peptide) | 9800 nM
I-566: Ac-PL3-Asp-Npg-B5-Asp-3COOHF-Aib-Ala-Phe-[2_6-naph]Cys-PyrS2-3Thi-BztA-Cys-Ala-NH2 (peptide) | > 20000 nM
I-567: Ac-PL3-Asp-Npg-B5-Asp-3COOHF-Aib-Ala-Phe-[3_3-biph]Cys-PyrS2-3Thi-BztA-Cys-Ala-NH2 (peptide) | > 20000 nM

What follows are substances tested against full-length B-Catenin (Uniprot ID P35222) (human) (assay: competition fluorescence polarization).
Chain of full-length B-Catenin (Uniprot ID P35222) (human) (P35222 whole entry): as the sequence (P35222 whole entry, the tested form may be a part) above

Substance | IC50
4PyPrpc-PL3-Asp-Npg-B5-Asp-3COOHF-Aib-Ala-Phe-Lys*3-PyrS2-3Thi-BztA-GlnR*3-Ala-NH2 (I-1070) (peptide) | < 50 nM
1Pyrazole Ac-PL3-Asp-Npg-B5-Asp-3COOHF-Aib-Ala-Phe-Lys*3-PyrS2-3Thi-BztA-GlnR*3-Ala-NH2 (peptide) | < 50 nM
5PymAc-PL3-Asp-Npg-B5-Asp-3COOHF-Aib-Ala-Phe-Lys*3-PyrS2-3Thi-BztA-GlnR*3-Ala-NH2 (peptide) | < 50 nM
123TriAc-PL3-Asp-Npg-B5-Asp-3COOHF-Aib-Ala-Phe-Lys*3-PyrS2-3Thi-BztA-GlnR*3-Ala-NH2 (peptide) | < 50 nM
3PyPrpc-PL3-Asp-Npg-B5-Asp-3COOHF-Aib-Ala-Phe-Lys*3-PyrS2-3Thi-BztA-GlnR*3-Ala-NH2 (peptide) | < 50 nM
1PydoneAc-PL3-Asp-Npg-B5-Asp-3COOHF-Aib-Ala-Phe-Lys*3-PyrS2-3Thi-BztA-GlnR*3-Ala-NH2 (peptide) | < 50 nM
3Py Ac-PL3-Asp-Npg-B5-Asp-3COOHF-Aib-Ala-Phe-Lys*3-PyrS2-3Thi-BztA-GlnR*3-Ala-NH2 (peptide) | < 50 nM
4PyPrpc-PL3-Asp-Npg-B5-Asp-3COOHF-Aib-Ala-Phe-Lys*3-PyrS2-3Thi-BztA-GlnR*3-Ala-NH2 (I-1071) (peptide) | < 50 nM

The substances below were run against full-length beta-catenin (Uniprot ID P35222) (human) (assay: competition fluorescence polarization).

Substance | IC50
I-377: Ac-PL3-Asp-Npg-B5-Asp-3COOHF-Aib-Ala-Phe-[pXyl]Cys-PyrS2-2F3MeF-BztA-Cys-Ala-NH2 (peptide) | 93 nM
I-566: Ac-PL3-Asp-Npg-B5-Asp-3COOHF-Aib-Ala-Phe-[2_6-naph]Cys-PyrS2-3Thi-BztA-Cys-Ala-NH2 (peptide) | 58 nM
I-376: Ac-PL3-Asp-Npg-B5-Asp-3COOHF-Aib-Ala-Phe-[oXyl]Cys-PyrS2-2F3MeF-BztA-Cys-Ala-NH2 (peptide) | 220 nM
I-567: Ac-PL3-Asp-Npg-B5-Asp-3COOHF-Aib-Ala-Phe-[3_3-biph]Cys-PyrS2-3Thi-BztA-Cys-Ala-NH2 (peptide) | 120 nM

The substances below were run against full-length B-Catenin (Uniprot ID P35222) (human) (assay: competition fluorescence polarization, displacement of 5FAM-TCF4).

Substance | IC50
Ac-PL3-Asp-Npg-B5-Asp-dGlu-Aib-Ala-Phe-Lys*3-PyrS2-2F3MeF-BztA-GlnR*3-Ala-NH2 (peptide) | < 50 nM
Ac-PL3-Asp-Npg-B5-Asp-5F3Me3COOHF-Aib-Ala-Phe-Lys*3-PyrS2-2F3MeF-BztA-GlnR*3-Ala-NH2 (peptide) | < 50 nM

Each substance was assayed against beta-catenin fused to HaloTag (Bcat-Halo NanoBRET construct), expressed in HEK293 cells (UniProt P35222) (assay: NanoBRET Abs IC50 in HEK293 cells, beta-catenin-HaloTag against TCF4-NanoLuc).
Chain of beta-catenin fused to HaloTag (Bcat-Halo NanoBRET construct), expressed in HEK293 cells (P35222 whole entry, the tested form may be a part): as above

Substance | IC50
Ac-PL3-Asp-Npg-B5-Asp-Glu-Aib-Ala-Phe-Lys*3-PyrS2-2F3MeF-BztA-GlnR*3-Ala-NH2 (peptide) | > 3000 nM
Ac-PL3-Asp-Npg-B5-Asp-Ser-Aib-Ala-Phe-Lys*3-PyrS2-2F3MeF-BztA-GlnR*3-Ala-NH2 (peptide) | > 3000 nM
Ac-PL3-Asp-Npg-B5-Asp-Gln-Aib-Ala-Phe-Lys*3-PyrS2-2F3MeF-BztA-GlnR*3-Ala-NH2 (peptide) | > 3000 nM
Ac-PL3-Asp-Npg-B5-Asp-aThr-Aib-Ala-Phe-Lys*3-PyrS2-2F3MeF-BztA-GlnR*3-Ala-NH2 (peptide) | > 3000 nM
Ac-PL3-Asp-Npg-B5-Asp-4F3Me2COOHF-Aib-Ala-Phe-Lys*3-PyrS2-2F3MeF-BztA-GlnR*3-Ala-NH2 (peptide) | > 3000 nM
Ac-PL3-Asp-Npg-B5-Asp-5F3Me2COOHF-Aib-Ala-Phe-Lys*3-PyrS2-2F3MeF-BztA-GlnR*3-Ala-NH2 (peptide) | > 3000 nM
Ac-PL3-Asp-Npg-B5-Asp-2COOHF-Aib-Ala-Phe-Lys*3-PyrS2-2F3MeF-BztA-GlnR*3-Ala-NH2 (peptide) | < 3000 nM
Ac-PL3-Asp-Npg-B5-Asp-Asp-Aib-Ala-Phe-Lys*3-PyrS2-2F3MeF-BztA-GlnR*3-Ala-NH2 (peptide) | > 3000 nM
Ac-PL3-Asp-Npg-B5-Asp-Ala-Aib-Ala-Phe-Lys*3-PyrS2-2F3MeF-BztA-GlnR*3-Ala-NH2 (peptide) | > 3000 nM
Ac-PL3-Asp-Npg-B5-Asp-Asn-Aib-Ala-Phe-Lys*3-PyrS2-2F3MeF-BztA-GlnR*3-Ala-NH2 (peptide) | > 3000 nM
Ac-PL3-Asp-Npg-B5-Asp-4F3Me3COOHF-Aib-Ala-Phe-Lys*3-PyrS2-2F3MeF-BztA-GlnR*3-Ala-NH2 (peptide) | < 3000 nM
Ac-PL3-Asp-Npg-B5-Asp-3F2COOHF-Aib-Ala-Phe-Lys*3-PyrS2-2F3MeF-BztA-GlnR*3-Ala-NH2 (peptide) | > 3000 nM
